Laboratory results taken from patent US20130244938A1 (Stanford University, published 2013).
Where no end group is shown, it is not given here.

T1: LGR7 (leucine-rich repeat-containing GPCR 7) (human) (UniProt Q9HBX9)
T1 sequence (looked up): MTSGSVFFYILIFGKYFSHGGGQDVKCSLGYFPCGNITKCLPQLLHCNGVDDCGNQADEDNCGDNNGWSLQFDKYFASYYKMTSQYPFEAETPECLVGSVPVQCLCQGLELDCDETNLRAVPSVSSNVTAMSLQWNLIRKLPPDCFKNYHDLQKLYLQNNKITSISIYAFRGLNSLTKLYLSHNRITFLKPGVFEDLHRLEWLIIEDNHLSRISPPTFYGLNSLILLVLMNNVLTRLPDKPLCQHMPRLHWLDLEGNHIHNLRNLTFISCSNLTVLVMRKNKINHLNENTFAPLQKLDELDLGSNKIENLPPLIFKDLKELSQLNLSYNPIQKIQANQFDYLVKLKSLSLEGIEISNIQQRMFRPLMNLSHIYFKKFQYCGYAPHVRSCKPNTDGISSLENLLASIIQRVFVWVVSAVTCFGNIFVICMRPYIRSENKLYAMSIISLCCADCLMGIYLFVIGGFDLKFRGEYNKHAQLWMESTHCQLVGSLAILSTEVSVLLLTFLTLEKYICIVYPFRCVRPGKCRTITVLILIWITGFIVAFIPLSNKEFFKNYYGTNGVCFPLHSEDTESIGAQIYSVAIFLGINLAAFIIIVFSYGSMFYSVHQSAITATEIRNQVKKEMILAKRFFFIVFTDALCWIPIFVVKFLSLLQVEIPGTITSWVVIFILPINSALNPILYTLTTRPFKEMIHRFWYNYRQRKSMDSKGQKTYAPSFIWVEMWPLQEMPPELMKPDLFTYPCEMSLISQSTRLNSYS

T2: LGR7 (leucine-rich repeat-containing GPCR 7) (human, UniProt Q9HBX9 1-757)
T2 sequence (looked up): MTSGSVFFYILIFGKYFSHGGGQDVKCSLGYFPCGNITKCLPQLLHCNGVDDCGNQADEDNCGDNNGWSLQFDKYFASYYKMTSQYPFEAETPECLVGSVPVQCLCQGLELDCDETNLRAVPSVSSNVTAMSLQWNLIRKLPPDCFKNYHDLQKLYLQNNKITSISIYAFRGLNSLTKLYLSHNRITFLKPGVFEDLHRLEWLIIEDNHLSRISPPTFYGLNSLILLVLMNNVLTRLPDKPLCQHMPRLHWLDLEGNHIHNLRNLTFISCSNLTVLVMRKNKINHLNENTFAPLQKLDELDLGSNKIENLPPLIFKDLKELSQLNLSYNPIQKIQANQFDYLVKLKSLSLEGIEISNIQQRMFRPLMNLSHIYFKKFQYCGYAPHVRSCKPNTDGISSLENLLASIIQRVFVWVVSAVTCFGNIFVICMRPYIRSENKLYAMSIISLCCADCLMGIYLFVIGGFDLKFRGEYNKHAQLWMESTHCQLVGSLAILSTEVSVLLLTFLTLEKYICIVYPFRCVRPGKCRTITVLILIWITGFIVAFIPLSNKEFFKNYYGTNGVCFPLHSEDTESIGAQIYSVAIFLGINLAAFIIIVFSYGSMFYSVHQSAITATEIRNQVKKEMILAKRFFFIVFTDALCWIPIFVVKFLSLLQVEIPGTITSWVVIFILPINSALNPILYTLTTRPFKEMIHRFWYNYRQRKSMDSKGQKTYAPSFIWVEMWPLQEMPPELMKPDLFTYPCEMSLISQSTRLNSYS


Tests used:
[1] = target: T1, LGR7 (leucine-rich repeat-containing GPCR 7) (human); assay: cell-based or functional assay
[2] = target: T2, LGR7 (leucine-rich repeat-containing …); assay: cell-based or functional assay
[3] = target: T2, LGR7 (leucine-rich repeat-containing …); assay: competition with 125I-RLN2 tracer on LGR7-expressing HEK293T cells
Procedure: (§1) To determine the binding characteristics of wild type and mutant peptides, HEK293T cells expressing LGR7 or LGR8 were grown to 90% confluence, collected by centrifugation at 3000×g for 2 min, and washed two times in 2 ml of ice-cold binding buffer. Cells were resuspended in ice-cold binding buffer, and aliquots of cell suspension were incubated with increasing doses of purified recombinant peptides in the presence of 0.025 pmol of ¹²⁵I-labeled RLN2 tracer (Phoenix Pharmaceuticals, Burlingame, Calif.) at room temperature for 2 h. After washing three times in an ice-cold binding buffer, radioactivity bound to the cells was measured using a y-counter (EG&G Wallace, Gaithersburg, Md.). Total binding was determined in the absence, and nonspecific binding in the presence, of 25 nmol of unlabeled RLN2. In regular assays, total binding was ˜30,000 cpm, and nonspecific binding amounted to less than 20% of the total binding. Data points were collected in triplicate, and similar results were obtained in at least two independent assays.

[4] = target: LGR8 (leucine-rich repeat-containing GPCR 8) (human) (UniProt Q8WXD0); assay: cell-based or functional assay
Sequence of LGR8 (leucine-rich repeat-containing GPCR 8) (human) (Q8WXD0 whole entry): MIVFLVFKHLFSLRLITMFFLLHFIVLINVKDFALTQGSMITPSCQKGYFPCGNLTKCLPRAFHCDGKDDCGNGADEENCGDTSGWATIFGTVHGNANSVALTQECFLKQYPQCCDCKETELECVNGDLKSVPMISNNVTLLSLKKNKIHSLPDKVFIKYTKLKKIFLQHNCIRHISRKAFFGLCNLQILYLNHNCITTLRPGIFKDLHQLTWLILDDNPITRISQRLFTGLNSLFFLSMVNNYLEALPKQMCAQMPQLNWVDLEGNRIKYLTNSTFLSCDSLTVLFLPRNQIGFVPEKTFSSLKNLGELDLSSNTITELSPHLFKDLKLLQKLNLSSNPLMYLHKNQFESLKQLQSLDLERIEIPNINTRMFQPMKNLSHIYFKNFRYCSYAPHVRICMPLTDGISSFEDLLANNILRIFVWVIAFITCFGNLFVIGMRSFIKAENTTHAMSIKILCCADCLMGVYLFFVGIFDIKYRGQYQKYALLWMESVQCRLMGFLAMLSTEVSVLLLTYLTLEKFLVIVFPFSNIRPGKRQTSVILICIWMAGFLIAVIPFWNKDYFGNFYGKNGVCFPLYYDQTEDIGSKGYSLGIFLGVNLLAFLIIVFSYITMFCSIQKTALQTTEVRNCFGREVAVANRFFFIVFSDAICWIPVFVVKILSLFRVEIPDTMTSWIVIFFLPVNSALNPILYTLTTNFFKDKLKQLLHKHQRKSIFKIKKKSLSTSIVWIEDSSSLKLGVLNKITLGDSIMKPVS

[5] = target: T3, LGR8 (leucine-rich repeat-containing GPCR 8) (human, UniProt Q8WXD0 1-754); assay: competition with 125I-RLN2 tracer on LGR8-expressing HEK293T cells
T3 construct: whole, on cells; The methods say only 'recombinant LGR8' stably expressed in HEK293T cells; also called RFXR2; recombinant LGR8
T3 sequence (Q8WXD0 whole entry): as above
Procedure: as §1

[6] = target: T3, LGR8 (leucine-rich repeat-containing …); assay: cell-based or functional assay
[7] = target: T3, LGR8 (leucine-rich repeat-containing …); assay: competition with 125I-RLN2 on LGR8-expressing HEK293T cells (Table 2 cell: ND, pIC50 not measurable)
Procedure: as §1

[8] = target: T3, LGR8 (leucine-rich repeat-containing …); assay: cell-based or functional assay; remark: listed apart in the source

Molecule | pEC50, stimulation of cAMP production in LGR7-expressing HEK293T cells [2] | pIC50 [3] | pIC50 [5] | pEC50, stimulation of cAMP production in LGR8-expressing HEK293T cells [6] | other results
WT RLN2 (His1) (ligand) |  |  |  |  | pEC50, stimulation of cAMP production in LGR7-expressing HEK293T cells [1]: 8.66
WT RLN2 (His2) (ligand) |  |  |  |  | pEC50, stimulation of cAMP production in LGR7-expressing HEK293T cells [1]: 8.77
WT INSL3 (recombinant human insulin-like 3, Myc- and His6-tagged) (ligand, not shown: small tags and cut ends) chain 1: PTPEMREKLCGHHFVRALVRVCGGPRWSTEAHHHHHH chain 2: AAATNPARYCCLSGCTQQDLLTLCPY |  |  |  |  | pEC50, stimulation of cAMP production in LGR8-expressing HEK293T cells [4]: 9.03
WT RLN2 (recombinant wild type human RLN2, Myc- and His6-tagged) (ligand, not shown: small tags and cut ends, also called wild type RLN2; wild type peptide) chain 1: SWMEEVIKLCGRELVRAQIAICGMSTWSHHHHHH chain 2: QLYSALANKCCHVGCTKRSLARFC | 9.3 | 8.72 | 7.9 | 7.41 | 
RLN2 R^A22A (ligand, not shown: small tags and cut ends, not fully specified; ends and bridges not checked; also: N-terminal Myc epitope tag, Construct with the 8-amino acid linker, processed to the mature two-chain form) chain 1: SWMEEVIKLCGRELVRAQIAICGMSTWSHHHHHH chain 2: QLYSALANKCCHVGCTKRSLAAFC | 10 | 8.42 | 6.8 | 7.51 | 
WT RLN3 (recombinant human relaxin 3, Myc- and His6-tagged) (ligand, not shown: small tags and cut ends, not fully specified; ends and bridges not checked; also: N-terminal Myc epitope tag) chain 1: RAAPYGVRLCGREFIRAVIFTCGGSRWHHHHHH chain 2: DVLAGLSSSCCKWGCSKSEISSLC |  |  |  |  | pEC50, stimulation of cAMP production in LGR7-expressing HEK293T cells [1]: 7.73

Further lines, with some results ahead:

pEC50, stimulation of cAMP production in LGR7-expressing HEK293T cells [2] | pIC50 [3] | pIC50 [5] | pEC50, stimulation of cAMP production in LGR8-expressing HEK293T cells [6] | Molecule | other results
6.53 | 8.78 |  |  | Nontagged human RLN2 peptide (ligand, not fully specified (bridges); ends and bridges not checked, Used as a standard; also called Nontagged RLN2; nontagged wild type RLN2 peptide) chain 1: SWMEEVIKLCGRELVRAQIAICGMSTWS chain 2: QLYSALANKCCHVGCTKRSLARFC | 
8.87 | 7.5 |  |  | RLN2^A22-23 (ligand, not shown: small tags and cut ends, It is read here as both residues changed to alanine) chain 1: SWMEEVIKLCGRELVRAQIAICGMSTWSHHHHHH chain 2: QLYSALANKCCHVGCTKRSLAAAC | binding result [7]: no binding
9.75 | 8.4 | 7.74 | 8.04 | RLN2 T^A16A (ligand, not shown: small tags and cut ends, not fully specified; ends and bridges not checked; also: N-terminal Myc epitope tag, Construct with the 8-amino acid linker, processed to the mature two-chain form) chain 1: SWMEEVIKLCGRELVRAQIAICGMSTWSHHHHHH chain 2: QLYSALANKCCHVGCAKRSLARFC | maximum LGR8-activation activity (cAMP production), against wild type RLN2 [8]: 2 fold
8.56 | 8.21 | 7.51 | 8.41 | RLN2^A19-20 (ligand, not shown: small tags and cut ends, It is read here as both residues changed to alanine) chain 1: SWMEEVIKLCGRELVRAQIAICGMSTWSHHHHHH chain 2: QLYSALANKCCHVGCTKRAAARFC | 
9.67 | 8.42 | 7.46 | 7.56 | RLN2 R^A18A (ligand, not shown: small tags and cut ends) chain 1: SWMEEVIKLCGRELVRAQIAICGMSTWSHHHHHH chain 2: QLYSALANKCCHVGCTKASLARFC | 
